Laboratory results as given in patent US20250025552A1 (published 2025).

Biological target: the molecule itself
Test: gel filtration (Superdex 200) of His-caspase 11 after incubation with oxPAPC; self-association
Procedure: To measure the ability of oxPAPC to oligomerize caspase-11, monomer or oligomer fractions of His-caspase 11 were incubated with oxPAPC for 2 hours on ice, and then analyzed with Superdex 200 (10/300).

B1: His-caspase 11 (full length mouse caspase 11 with a TEV cleavable N-terminal 6xHis tag) (enzyme, UniProt P70343 1-373, looked up)
chain: MAENKHPDKPLKVLEQLGKEVLTEYLEKLVQSNVLKLKEEDKQKFNNAERSDKRWVFVDAMKKKHSKVGEMLLQTFFSVDPGSHHGEANLEMEEPEESLNTLKLCSPEEFTRLCREKTQEIYPIKEANGRTRKALIICNTEFKHLSLRYGANFDIIGMKGLLEDLGYDVVVKEELTAEGMESEMKDFAALSEHQTSDSTFLVLMSHGTLHGICGTMHSEKTPDVLQYDTIYQIFNNCHCPGLRDKPKVIIVQACRGGNSGEMWIRESSKPQLCRGVDLPRNMEADAVKLSHVEKDFIAFYSTTPHHLSYRDKTGGSYFITRLISCFRKHACSCHLFDIFLKVQQSFEKASIHSQMPTIDRATLTRYFYLFPGN
notes: Monomer or oligomer fractions from size exclusion chromatography were incubated with oxPAPC and run on Superdex 200; not shown: TEV cleavable N-terminal 6xHis tag from the pFastBac HT A vector
B1: binds.
